Results: US20220119522A1 (DENALI THERAPEUTICS, published 2022)
No end group written: not given here.

T1: human TREM2 on the cell surface (human, UniProt Q9NZC2 19-230)
T1 sequence: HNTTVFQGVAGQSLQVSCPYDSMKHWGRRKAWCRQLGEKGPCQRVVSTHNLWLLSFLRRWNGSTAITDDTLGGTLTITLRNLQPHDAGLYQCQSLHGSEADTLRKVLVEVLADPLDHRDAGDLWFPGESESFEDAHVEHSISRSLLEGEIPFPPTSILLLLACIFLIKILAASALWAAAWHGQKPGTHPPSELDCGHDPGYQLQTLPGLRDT

T2: His-tagged human TREM2 ECD (human, UniProt Q9NZC2 19-172)
T2 construct: Biacore and HDX say only recombinant human TREM2 (ECD); also called recombinant human TREM2; hTREM2
T2 sequence: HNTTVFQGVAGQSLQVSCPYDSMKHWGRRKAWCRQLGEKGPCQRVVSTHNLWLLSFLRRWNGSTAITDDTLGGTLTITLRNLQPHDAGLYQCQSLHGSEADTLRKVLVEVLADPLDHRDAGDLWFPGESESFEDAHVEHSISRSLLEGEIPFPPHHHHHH

T3: mouse TREM2 full length stalk region peptide (aa 131-169) (mouse, UniProt Q99NH8 131-169, biotinylated (site not stated))
T3 peptide (looked up): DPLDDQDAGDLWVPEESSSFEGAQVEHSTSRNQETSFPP

T4: human TREM2 full length stalk region peptide (aa 129-172) (human, biotinylated (site not stated))
T4 construct: also called Human TREM2 peptide (aa 129-172); full-length TREM2 stalk peptide
T4 peptide: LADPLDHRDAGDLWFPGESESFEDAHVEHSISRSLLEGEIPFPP

T5: human TREM2 truncated stalk peptide (aa 149-163) (human, also: biotinylated (site not given here))
T5 construct: also called Human TREM2 peptide (aa 149-163); truncated stalk peptide containing the ADAM10/17 cleavage site
T5 peptide: SFEDAHVEHSISRSL


Key:
[1] = biological target: T1, human TREM2 on the cell surface; assay: cell-based or functional assay
[2] = biological target: T2, His-tagged human TREM2 ECD; assay: SPR (Biacore); Table 5 run, parent beside its humanized variants
[3] = biological target: T1, human TREM2 on the cell surface; assay: cell binding, human macrophages, dose titration
[4] = biological target: T6, recombinant cynomolgus TREM2 ECD (cynomolgus); assay: SPR (Biacore), antibody captured via anti-human Fab, recombinant TREM2 ECD injected, 1:1 fit
T6 construct: extracellular domain; also called cyno TREM2
Method in brief: (§1)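 Antibodies captured on a CM5 chip via anti-human Fab, then 3-fold serial dilutions of recombinant human or cynomolgus TREM2 ECD injected at 30 μL/min in HBS-EP+. Association 300 s, dissociation 600+ s, blank-cell subtracted; kon and koff from simultaneous 1:1 Langmuir fit.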

[5] = biological target: T2, His-tagged human TREM2 ECD; assay: as above
Method in brief: as §1

[6] = biological target: T3, mouse TREM2 full length stalk region …; assay: ELISA on biotinylated peptide captured by streptavidin; A450 normalised to isotype control
Method in brief: (§2)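 Sandwich ELISA: biotinylated TREM2 stalk peptides captured on streptavidin-coated plates, antibodies added for 1 h in 1% BSA/PBS, binding detected with anti-human kappa-HRP and TMB at A450. Values expressed as fold over isotype-control background.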

[7] = biological target: T4, human TREM2 full length stalk region …; assay: as above
Method in brief: as §2

[8] = biological target: T1, human TREM2 on the cell surface; assay: flow cytometry, dose-titrated binding to HEK293-H6 cells
[9] = biological target: T4, human TREM2 full length stalk region …; assay: fluorescence polarization assay with TREM2 stalk peptide and ADAM17
Procedure: The ability of anti-TREM2 antibodies to inhibit TREM2 stalk peptide cleavage by ADAM17 was also analyzed using a fluorescence polarization assay. TREM2 stalk peptides were first prepared in assay buffer (25 mM Tris pH 7.5, 2.5 μM ZnCl₂, 0.005% Brij-35) with streptavidin. Anti-TREM2 antibodies were then pre-incubated with TREM2 stalk peptides for 30 minutes at room temperature. After the pre-incubation period, ADAM17 (R&D systems, Catalog No. 930-ADB) was added and incubated with the peptides for 20 hours at 37° C. The following day, samples were further diluted in assay buffer and transferred to a black opaque 384-well plate. Fluorescence polarization was subsequently measured on Perkin Elmer EnVision plate reader. The fluorescence polarization of TREM2 stalk peptides pre-incubated with anti-TREM2 antibody was compared to fluorescence polarization of full-length TREM2 stalk peptide and enzyme control (full-length TREM2 stalk peptide with ADAM17).

[10] = biological target: T5, human TREM2 truncated stalk peptide (aa …); assay: ELISA on biotinylated peptide captured by streptavidin; A450 normalised to isotype control
Method in brief: as §2

NFAT EC50 (nM), plate coated mAb [1] [nM] | pSyk activation (human macrophages) EC50 (nM) [1] [nM] | Kd [2] [nM] | EC50 [3] [nM] | Kd [4] [nM] | Kd [5] [nM] | fold over background (A450) [6] [fold] | fold over background (A450) [7] [fold] | EC50 [8] [nM] | binding result [9] | fold over background (A450) [10] [fold] | Binder | Survival EC50 (nM), plate coated mAb, human macrophages [1] [nM]
91.2 | 7.7 | 9.5 | 0.5 | 2 | 5.2 | 33 | 51 | 0.44 |  |  | CL0020188 (antibody, V domains shown, also called Clone CL0020188) VH: EVKLLDSGGGLVQAGGSLRLSCAGSGFTFTDFYMSWIRQPPGKAPEWLGVIRNKANGYTAGYNPSVKGRFTISRDNTQNILYLQMNTLRAEDTAIYYCARLTYGFDYWGQGVMVTVSS VL: DIVMTQGALPNPVPSGESASITCQSSKSLLHSNGKTYLNWYLQRPGQSPQLLIYWMSTRASGVSDRFSGSGSGTDFTLKISSVEAEDVGVYYCQQFLEYPFTFGSGTKLEIK | 2.4
10.9 | 28.5 |  | 4.4 | 104 | 1.47 | 1.3 | 1.7 |  | no binding | 1.4 | CL0020107 (antibody, V domains shown, also called Clone CL0020107) VH: QVQLQQPGAELVKPGASVKMSCRASGYTFTNYWISWVKQRPGQGLEWIGDIYPHSTSTNYNERFRSKATLTVDKSSTTAYMQLSSLTSEDSAVYYCAREGFGISAWGQGTTLTVSS VL: QIVLTQSPAIMSASPGEKVTITCSATSSVSYMHWFQQKPGTSPKLWIYSTSNLASGVPARFSGSGSGTSHSLTISRMEAEDAATYYCQQRSSYPLTFGSGTKLELK | 0.53
